Measured values reported in patent US20260049138A1 (Chugai, published 2026).

Molecular target: T1, CD3ε homodimer protein (human, UniProt P07766 23-126, limits assumed, sulfo-tag or biotin label in the ECL assays; amine-coupled to the chip in SPR)
T1 construct: also called human CD3ε homodimer protein; CD3 (CD3ε)
Experiment: SPR Biacore T200; CD3ε homodimer on CM4 chip;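 note: Single-residue variant antibodies injected as analyte over CD3ε homodimer immobilized by amine coupling, run at 25 °C in HBS-EP+ buffer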

T1 sequence (P07766 23-126 limits assumed): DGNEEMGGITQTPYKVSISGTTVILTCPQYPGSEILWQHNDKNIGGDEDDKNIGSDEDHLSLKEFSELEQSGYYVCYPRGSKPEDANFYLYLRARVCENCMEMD

Binder	ratio of amounts bound Z=Y/X (altered form / CE115HA000)
CE115HA000 N54Q one-arm antibody (antibody, human IgG1, kappa, L234A L235A, N297A, name in Kabat numbering) heavy: QVQLVESGGGVVQPGRSLRLSCAASGFTFSNAWMHWVRQAPGKGLEWVAQIKAKSNQYATYYAESVKGRFTISRDDSKNSLYLQMNSLKTEDTAVYYCRYVHYGAYYGVDAWGQGTTVTVSSASTKGPSVFPLAPSSKSTSGGTAALGCLVKDYFPEPVTVSWNSGALTSGVHTFPAVLQSSGLYSLSSVVTVPSSSLGTQTYICNVNHKPSNTKVDKKVEPKSCDKTHTCPPCPAPEAAGGPSVFLFPPKPKDTLMISRTPEVTCVVVDVSHEDPEVKFNWYVDGVEVHNAKTKPREEQYASTYRVVSVLTVLHQDWLNGKEYKCKVSNKALPAPIEKTISKAKGQPREPQVYTLPPSRCELTKNQVSLSCAVKGFYPSDIAVEWESNGQPENNYKTTPPVLDSDGSFFLVSKLTVDKSRWQQGNVFSCSVMHEALHNHYTQKSLSLSPDYKDDDDK EPKSSDKTHTCPPCPAPELLGGPSVFLFPPKPKDTLMISRTPEVTCVVVDVSHEDPEVKFNWYVDGVEVHNAKTKPREEQYNSTYRVVSVLTVLHQDWLNGKEYKCKVSNKALPAPIEKTISKAKGQPREPQVCTLPPSRDELTKNQVSLWCLVKGFYPSDIAVEWESNGQPENNYKTTPPVLDSDGSFFLYSKLTVDKSRWQQGNVFSCSVMHEALHNRYTQKSLSLSP light: DIVMTQSPLSLPVTPGEPASISCRSSQSLVHSNRNTYLHWYQQKPGQAPRLLIYKVSNRFSGVPDRFSGSGSGTDFTLKISRVEAEDVGVYYCGQGTQVPYTFGQGTKLEIKRTVAAPSVFIFPPSDEQLKSGTASVVCLLNNFYPREAKVQWKVDNALQSGNSQESVTEQDSKDSTYSLSSTLTLSKADYEKHKVYACEVTHQGLSSPVTKSFNRGEC	0.84
CE115HA000 N54G one-arm antibody (antibody, human IgG1, kappa, L234A L235A, N297A, name in Kabat numbering) heavy: QVQLVESGGGVVQPGRSLRLSCAASGFTFSNAWMHWVRQAPGKGLEWVAQIKAKSNGYATYYAESVKGRFTISRDDSKNSLYLQMNSLKTEDTAVYYCRYVHYGAYYGVDAWGQGTTVTVSSASTKGPSVFPLAPSSKSTSGGTAALGCLVKDYFPEPVTVSWNSGALTSGVHTFPAVLQSSGLYSLSSVVTVPSSSLGTQTYICNVNHKPSNTKVDKKVEPKSCDKTHTCPPCPAPEAAGGPSVFLFPPKPKDTLMISRTPEVTCVVVDVSHEDPEVKFNWYVDGVEVHNAKTKPREEQYASTYRVVSVLTVLHQDWLNGKEYKCKVSNKALPAPIEKTISKAKGQPREPQVYTLPPSRCELTKNQVSLSCAVKGFYPSDIAVEWESNGQPENNYKTTPPVLDSDGSFFLVSKLTVDKSRWQQGNVFSCSVMHEALHNHYTQKSLSLSPDYKDDDDK EPKSSDKTHTCPPCPAPELLGGPSVFLFPPKPKDTLMISRTPEVTCVVVDVSHEDPEVKFNWYVDGVEVHNAKTKPREEQYNSTYRVVSVLTVLHQDWLNGKEYKCKVSNKALPAPIEKTISKAKGQPREPQVCTLPPSRDELTKNQVSLWCLVKGFYPSDIAVEWESNGQPENNYKTTPPVLDSDGSFFLYSKLTVDKSRWQQGNVFSCSVMHEALHNRYTQKSLSLSP light: DIVMTQSPLSLPVTPGEPASISCRSSQSLVHSNRNTYLHWYQQKPGQAPRLLIYKVSNRFSGVPDRFSGSGSGTDFTLKISRVEAEDVGVYYCGQGTQVPYTFGQGTKLEIKRTVAAPSVFIFPPSDEQLKSGTASVVCLLNNFYPREAKVQWKVDNALQSGNSQESVTEQDSKDSTYSLSSTLTLSKADYEKHKVYACEVTHQGLSSPVTKSFNRGEC	0.98
CE115HA000 N54S one-arm antibody (antibody, human IgG1, kappa, L234A L235A, N297A, name in Kabat numbering) heavy: QVQLVESGGGVVQPGRSLRLSCAASGFTFSNAWMHWVRQAPGKGLEWVAQIKAKSNSYATYYAESVKGRFTISRDDSKNSLYLQMNSLKTEDTAVYYCRYVHYGAYYGVDAWGQGTTVTVSSASTKGPSVFPLAPSSKSTSGGTAALGCLVKDYFPEPVTVSWNSGALTSGVHTFPAVLQSSGLYSLSSVVTVPSSSLGTQTYICNVNHKPSNTKVDKKVEPKSCDKTHTCPPCPAPEAAGGPSVFLFPPKPKDTLMISRTPEVTCVVVDVSHEDPEVKFNWYVDGVEVHNAKTKPREEQYASTYRVVSVLTVLHQDWLNGKEYKCKVSNKALPAPIEKTISKAKGQPREPQVYTLPPSRCELTKNQVSLSCAVKGFYPSDIAVEWESNGQPENNYKTTPPVLDSDGSFFLVSKLTVDKSRWQQGNVFSCSVMHEALHNHYTQKSLSLSPDYKDDDDK EPKSSDKTHTCPPCPAPELLGGPSVFLFPPKPKDTLMISRTPEVTCVVVDVSHEDPEVKFNWYVDGVEVHNAKTKPREEQYNSTYRVVSVLTVLHQDWLNGKEYKCKVSNKALPAPIEKTISKAKGQPREPQVCTLPPSRDELTKNQVSLWCLVKGFYPSDIAVEWESNGQPENNYKTTPPVLDSDGSFFLYSKLTVDKSRWQQGNVFSCSVMHEALHNRYTQKSLSLSP light: DIVMTQSPLSLPVTPGEPASISCRSSQSLVHSNRNTYLHWYQQKPGQAPRLLIYKVSNRFSGVPDRFSGSGSGTDFTLKISRVEAEDVGVYYCGQGTQVPYTFGQGTKLEIKRTVAAPSVFIFPPSDEQLKSGTASVVCLLNNFYPREAKVQWKVDNALQSGNSQESVTEQDSKDSTYSLSSTLTLSKADYEKHKVYACEVTHQGLSSPVTKSFNRGEC	0.84

Continued, values first:

ratio of amounts bound Z=Y/X (altered form / CE115HA000)	Binder
1.12	CE115HA000 N54F one-arm antibody (antibody, human IgG1, kappa, L234A L235A, N297A, name in Kabat numbering) heavy: QVQLVESGGGVVQPGRSLRLSCAASGFTFSNAWMHWVRQAPGKGLEWVAQIKAKSNFYATYYAESVKGRFTISRDDSKNSLYLQMNSLKTEDTAVYYCRYVHYGAYYGVDAWGQGTTVTVSSASTKGPSVFPLAPSSKSTSGGTAALGCLVKDYFPEPVTVSWNSGALTSGVHTFPAVLQSSGLYSLSSVVTVPSSSLGTQTYICNVNHKPSNTKVDKKVEPKSCDKTHTCPPCPAPEAAGGPSVFLFPPKPKDTLMISRTPEVTCVVVDVSHEDPEVKFNWYVDGVEVHNAKTKPREEQYASTYRVVSVLTVLHQDWLNGKEYKCKVSNKALPAPIEKTISKAKGQPREPQVYTLPPSRCELTKNQVSLSCAVKGFYPSDIAVEWESNGQPENNYKTTPPVLDSDGSFFLVSKLTVDKSRWQQGNVFSCSVMHEALHNHYTQKSLSLSPDYKDDDDK EPKSSDKTHTCPPCPAPELLGGPSVFLFPPKPKDTLMISRTPEVTCVVVDVSHEDPEVKFNWYVDGVEVHNAKTKPREEQYNSTYRVVSVLTVLHQDWLNGKEYKCKVSNKALPAPIEKTISKAKGQPREPQVCTLPPSRDELTKNQVSLWCLVKGFYPSDIAVEWESNGQPENNYKTTPPVLDSDGSFFLYSKLTVDKSRWQQGNVFSCSVMHEALHNRYTQKSLSLSP light: DIVMTQSPLSLPVTPGEPASISCRSSQSLVHSNRNTYLHWYQQKPGQAPRLLIYKVSNRFSGVPDRFSGSGSGTDFTLKISRVEAEDVGVYYCGQGTQVPYTFGQGTKLEIKRTVAAPSVFIFPPSDEQLKSGTASVVCLLNNFYPREAKVQWKVDNALQSGNSQESVTEQDSKDSTYSLSSTLTLSKADYEKHKVYACEVTHQGLSSPVTKSFNRGEC
1.2	CE115HA000 N54K one-arm antibody (antibody, human IgG1, kappa, L234A L235A, N297A, name in Kabat numbering) heavy: QVQLVESGGGVVQPGRSLRLSCAASGFTFSNAWMHWVRQAPGKGLEWVAQIKAKSNKYATYYAESVKGRFTISRDDSKNSLYLQMNSLKTEDTAVYYCRYVHYGAYYGVDAWGQGTTVTVSSASTKGPSVFPLAPSSKSTSGGTAALGCLVKDYFPEPVTVSWNSGALTSGVHTFPAVLQSSGLYSLSSVVTVPSSSLGTQTYICNVNHKPSNTKVDKKVEPKSCDKTHTCPPCPAPEAAGGPSVFLFPPKPKDTLMISRTPEVTCVVVDVSHEDPEVKFNWYVDGVEVHNAKTKPREEQYASTYRVVSVLTVLHQDWLNGKEYKCKVSNKALPAPIEKTISKAKGQPREPQVYTLPPSRCELTKNQVSLSCAVKGFYPSDIAVEWESNGQPENNYKTTPPVLDSDGSFFLVSKLTVDKSRWQQGNVFSCSVMHEALHNHYTQKSLSLSPDYKDDDDK EPKSSDKTHTCPPCPAPELLGGPSVFLFPPKPKDTLMISRTPEVTCVVVDVSHEDPEVKFNWYVDGVEVHNAKTKPREEQYNSTYRVVSVLTVLHQDWLNGKEYKCKVSNKALPAPIEKTISKAKGQPREPQVCTLPPSRDELTKNQVSLWCLVKGFYPSDIAVEWESNGQPENNYKTTPPVLDSDGSFFLYSKLTVDKSRWQQGNVFSCSVMHEALHNRYTQKSLSLSP light: DIVMTQSPLSLPVTPGEPASISCRSSQSLVHSNRNTYLHWYQQKPGQAPRLLIYKVSNRFSGVPDRFSGSGSGTDFTLKISRVEAEDVGVYYCGQGTQVPYTFGQGTKLEIKRTVAAPSVFIFPPSDEQLKSGTASVVCLLNNFYPREAKVQWKVDNALQSGNSQESVTEQDSKDSTYSLSSTLTLSKADYEKHKVYACEVTHQGLSSPVTKSFNRGEC
0.94	CE115HA000 N54L one-arm antibody (antibody, human IgG1, kappa, L234A L235A, N297A, name in Kabat numbering) heavy: QVQLVESGGGVVQPGRSLRLSCAASGFTFSNAWMHWVRQAPGKGLEWVAQIKAKSNLYATYYAESVKGRFTISRDDSKNSLYLQMNSLKTEDTAVYYCRYVHYGAYYGVDAWGQGTTVTVSSASTKGPSVFPLAPSSKSTSGGTAALGCLVKDYFPEPVTVSWNSGALTSGVHTFPAVLQSSGLYSLSSVVTVPSSSLGTQTYICNVNHKPSNTKVDKKVEPKSCDKTHTCPPCPAPEAAGGPSVFLFPPKPKDTLMISRTPEVTCVVVDVSHEDPEVKFNWYVDGVEVHNAKTKPREEQYASTYRVVSVLTVLHQDWLNGKEYKCKVSNKALPAPIEKTISKAKGQPREPQVYTLPPSRCELTKNQVSLSCAVKGFYPSDIAVEWESNGQPENNYKTTPPVLDSDGSFFLVSKLTVDKSRWQQGNVFSCSVMHEALHNHYTQKSLSLSPDYKDDDDK EPKSSDKTHTCPPCPAPELLGGPSVFLFPPKPKDTLMISRTPEVTCVVVDVSHEDPEVKFNWYVDGVEVHNAKTKPREEQYNSTYRVVSVLTVLHQDWLNGKEYKCKVSNKALPAPIEKTISKAKGQPREPQVCTLPPSRDELTKNQVSLWCLVKGFYPSDIAVEWESNGQPENNYKTTPPVLDSDGSFFLYSKLTVDKSRWQQGNVFSCSVMHEALHNRYTQKSLSLSP light: DIVMTQSPLSLPVTPGEPASISCRSSQSLVHSNRNTYLHWYQQKPGQAPRLLIYKVSNRFSGVPDRFSGSGSGTDFTLKISRVEAEDVGVYYCGQGTQVPYTFGQGTKLEIKRTVAAPSVFIFPPSDEQLKSGTASVVCLLNNFYPREAKVQWKVDNALQSGNSQESVTEQDSKDSTYSLSSTLTLSKADYEKHKVYACEVTHQGLSSPVTKSFNRGEC
